B1: ProI, putative δ1-pyrroline-5-carboxylate (P5C) reductase from Bacillus subtilis (enzyme, Bacillus subtilis strain 168, UniProt P54552 1-278, looked up)
chain: MKKIGFVGAGSMAEAMINGILQSGITKPEHIYITNRSNDERLIELKETYSVRPCRDKNEFFTHTDIIILAFKPKDAAESIDSIRPYIKDQLVISVLAGLTIETIQHYFGRKLAVIRVMPNTSAAIRKSATGFSVSTEASKNDIIAAKALLETIGDATLVEERHLDAVTAIAGSGPAYVYRYIEAMEKAAQKVGLDKETAKALILQTMAGATDMLLQSGKQPEKLRKEITSPGGTTEAGLRALQDSRFEEAIIHCIEETAKRSAEIKEQFAGAALERHS
notes: ProI, putative P5C reductase, Bacillus subtilis strain 168; calculated mass 30.90 kDa; Cloned in pMCSG68 (His6 tag and TEV site at the N-terminus); also called P5C reductase ProI; source: E. coli BL21 Gold, purified (Ni-NTA, TEV cleavage, second Ni-NTA, SEC on Superdex 200); not shown: His6, N-terminal, cleaved
B2: ProH (Bacillus subtilis subsp. subtilis str. 168) (protein)
chain: MRTKKRTKEMLPIFDQKKVAFIGAGSMAEGMISGIVRANKIPKQNICVTNRSNTERLTELELQYGIKGALPNQLCIEDMDVLILAMKPKDAENALSSLKSRIQPHQLILSVLAGITTSFIEQSLLNEQPVVRVMPNTSSMIGASATAIALGKYVSEDLKKLAEALLGCMGEVYTIQENQMDIFTGIAGSGPAYFYYLMEFIEKTGEEAGLDKQLSRSIGAQTLLGAAKMLMETGEHPEILRDNITSPNGTTAAGLQA
notes: full-length; pMCSG68, N-terminal His6-TEV tag removed; E. coli BL21 Gold; homodimer by SAXS
B3: ProG, putative δ1-pyrroline-5-carboxylate (P5C) reductase from Bacillus subtilis (enzyme, Bacillus subtilis strain 168, UniProt Q00777 1-272, looked up)
chain: MEQIGLIGYGSMADMIARQLLKHEQIKENELFIETRTKGERLRALMSDYPNVSADPLENWANTCQLILICVPPLHVIETMRRLYPYVNRNTHIVSIAAGVPLRLLEAETEAGISRVIPAITSEAEAGISLVVHSEALAAEKKERLNELLSVFSRVREIKESNLDVASNLTSSAPGFIAAIFEELALSAVRNSSLSKEEAFDFLIHSLYGTGKMLIEKNMSFEETLERVATKGGITGEGAEVIHASVPDVFDEVFERTLRKYELLTEQVGKQT
notes: ProG, putative P5C reductase, Bacillus subtilis strain 168; calculated mass 30.20 kDa; Cloned in pMCSG68 (His6 tag and TEV site at the N-terminus); also called P5C reductase ProG; source: E. coli BL21 Gold, purified (Ni-NTA, TEV cleavage, second Ni-NTA, SEC on Superdex 200); not shown: His6, N-terminal, cleaved
B4: ProH, putative δ1-pyrroline-5-carboxylate (P5C) reductase from Bacillus subtilis (enzyme, Bacillus subtilis strain 168, UniProt P0CI77 1-297, looked up)
chain: MRTKKRTKEMLPIFDQKKVAFIGAGSMAEGMISGIVRANKIPKQNICVTNRSNTERLTELELQYGIKGALPNQLCIEDMDVLILAMKPKDAENALSSLKSRIQPHQLILSVLAGITTSFIEQSLLNEQPVVRVMPNTSSMIGASATAIALGKYVSEDLKKLAEALLGCMGEVYTIQENQMDIFTGIAGSGPAYFYYLMEFIEKTGEEAGLDKQLSRSIGAQTLLGAAKMLMETGEHPEILRDNITSPNGTTAAGLQALKKSGGGEAISQAIKHAAKRSKEISEDIEKTAAPLSGVIK
notes: ProH, putative P5C reductase, Bacillus subtilis strain 168; calculated mass 32.03 kDa; Cloned in pMCSG68 (His6 tag and TEV site at the N-terminus); also called P5C reductase ProH; source: E. coli BL21 Gold, purified (Ni-NTA, TEV cleavage, second Ni-NTA, SEC on Superdex 200); not shown: His6, N-terminal, cleaved
B5: ComER (Bacillus subtilis subsp. subtilis str. 168) (protein)
chain: MKIGFIGTGNMGTILIESFIESKAADPSNMTITNRTIEKALHIKNRYNSINVTESLEKLVSENEMIFICVKPLDIYPLLARALPYLRKDHILISITSPVQTEQLEQYVPCQVARVIPSITNRALAGVSLVTFGTSCGESAKAKINELMQHISHPLQIESDITRVASDIVSCGPAFMSYLIQRFIDAAVSETSVSKQDAILMCKEMLVGMGKLLETELYTLPALQEKVCVKGGVTGEGIKALESGVQDMFHRVFQNTHMKYEEDISAVKKQFHV
notes: full-length; pMCSG68, N-terminal His6-TEV tag removed; E. coli BL21 Gold; monomer by SAXS

What was measured:
ProH = target: T1, ProH (Bacillus subtilis, UniProt P0CI77); assay: NAD(P)H oxidation at […] nm; type: biochemical
T1 construct: full-length; pMCSG68, N-terminal His6-TEV tag removed; E. coli BL21 Gold; homodimer by SAXS

ProG = target: T2, ProG (Bacillus subtilis, UniProt Q00777); assay: NAD(P)H oxidation at […] nm; type: biochemical
T2 construct: full-length; pMCSG68, N-terminal His6-TEV tag removed; E. coli BL21 Gold; homodimer by SAXS

ProI = target: T3, ProI (Bacillus subtilis, UniProt P54552); assay: NAD(P)H oxidation at […] nm; type: biochemical
T3 construct: full-length; pMCSG68, N-terminal His6-TEV tag removed; E. coli BL21 Gold; homodimer by SAXS

ComER = target: T4, ComER (Bacillus subtilis, UniProt P39696); assay: NAD(P)H oxidation at […] nm; type: biochemical
T4 construct: full-length; pMCSG68, N-terminal His6-TEV tag removed; E. coli BL21 Gold; monomer by SAXS

[1] = target: the molecule itself; assay: small-angle X-ray scattering (SAXS) in line with SEC; each native protein at 5 mg mL^-1 loaded onto a Superdex 200 column in 20 mM HEPES pH 8.0, 150 mM NaCl, 2 mM TCEP, routed into the flow cell; oligomeric state from mass, Rg, Dmax and ab initio envelope
purified protein [2] = substrate: NC(=O)C1=CN([C@@H]2O[C@H](COP(=O)(O)OP(=O)(O)OC[C@H]3O[C@@H](n4cnc5c(N)ncnc54)[C@H](OP(=O)(O)O)[C@@H]3O)[C@@H](O)[C@H]2O)C=CC1; assay: purified protein; type: biochemical, Bacillus subtilis; settings: 1 mM L-P5C, 20 mM Tris-HCl pH 7.0, 30°C, kcat per monomer
purified protein [3] = substrate: O=C(O)[C@@H]1CCC=N1; assay: purified protein; type: biochemical, Bacillus subtilis; settings: 0.5 mM NADPH, 20 mM Tris-HCl pH 7.0, 30°C
purified protein [4] = substrate: NC(=O)C1=CN([C@@H]2O[C@H](COP(=O)(O)OP(=O)(O)OC[C@H]3O[C@@H](n4cnc5c(N)ncnc54)[C@H](O)[C@@H]3O)[C@@H](O)[C@H]2O)C=CC1; assay: purified protein; type: biochemical, Bacillus subtilis; settings: 1 mM L-P5C, 20 mM Tris-HCl pH 7.0, 30°C

Row | Molecule | IC50 (ProH) [mM] | stoichiometry N [1] | Km (purified protein [2]) [µM] | kcat (purified protein [2]) [s⁻¹] | kcat/Km (purified protein [2]) [M⁻¹ s⁻¹] | other results
1 | O=C(O)[C@@H]1CCCN1 [proline] | 41.4 ± 4.2 |  |  |  |  | IC50 (ProG): 22.3 ± 2.1 mM
2 | NC(=O)c1ccc[n+]([C@@H]2O[C@H](COP(=O)(O)OP(=O)(O)OC[C@H]3O[C@@H](n4cnc5c(N)ncnc54)[C@H](OP(=O)(O)O)[C@@H]3O)[C@@H](O)[C@H]2O)c1 [NADP^+] | 0.66 ± 0.1 |  |  |  |  | IC50 (ProI): 0.34 ± 0.04 mM; IC50 (ProG): 0.23 ± 0.03 mM; IC50 (ComER): 0.48 ± 0.07 mM
3 | NC(=O)c1ccc[n+]([C@@H]2O[C@H](COP(=O)(O)OP(=O)(O)OC[C@H]3O[C@@H](n4cnc5c(N)ncnc54)[C@H](O)[C@@H]3O)[C@@H](O)[C@H]2O)c1 [NAD^+] | 44.5 ± 11.6 |  |  |  |  | IC50 (ProI): 6.22 ± 0.6 mM; IC50 (ComER): 29.7 ± 3.7 mM
4 | B1 |  | 2 | 51.8 ± 2.8 | 0.14 | 2600 | Km (purified protein [3]): 203 ± 30 µM; Km (purified protein [4]; kcat per monomer): 1,810 ± 480 μM; kcat (purified protein [4]; kcat per monomer): 0.28 s⁻¹; kcat/Km (purified protein [4]; kcat per monomer): 150 M⁻¹ s⁻¹
5 | B2 |  |  | 13.6 ± 2.6 | 814 | 6.3e+07 | Km (purified protein [4]): 786 ± 36 µM
6 | B3 |  | 2 | 232 ± 18 | 19 | 84000 | Km (purified protein [3]): 64.9 ± 8.1 µM
7 | B4 |  | 2 |  |  |  | 
8 | B5 |  |  | 1.2 ± 0.4 | 0.09 | 75000 | Km (purified protein [3]; kcat per monomer): 3150 ± 1420 µM; kcat (purified protein [3]; kcat per monomer): 0.09 s⁻¹; Km (purified protein [4]; kcat per monomer): 226 ± 14 µM; kcat (purified protein [4]; kcat per monomer): 0.06 s⁻¹; kcat/Km (purified protein [4]; kcat per monomer): 270 M⁻¹ s⁻¹
